The nature of the data set: VLP assembly induced by NaCl, quantified by size-exclusion chromatography. In kind it is physicochemical. The protocol: Improved VLP purification method. HepBc proteins were expressed using standard cell-free protein synthesis reactions as described above. The improved purification strategy first used Sephadex G25 columns to exchange the samples into a 50 mM Tris, 25 mM Imidazole, 0.1% Tween-20, pH 7.4 buffer solution. Insolubles were removed using centrifugation at 10 k×g for 15 min before loading the soluble fraction onto the Ni-NTA column. After loading, the Ni-NTA column was washed with 4 column volumes (CV) of 50 mM Tris, 25 mM Imidazole, 0.1% Tween-20, pH 7.4 and then eluted with 50 mM Tris, 250 mM Imidazole, 0.1% Tween-20, pH 7.4 (5CV total). […] Assembled VLPs were quantified and purified by applying 200 μL of the samples to 2.2 mL Sepharose 6 Fast Flow size-exclusion chromatographic resin, eluting 24×150 μL fractions. Protein concentration in each fraction was determined by measuring the radioactivity using liquid scintillation counting. […]
VLP purification method. […] Assembled VLPs were quantified and purified by applying 200 μL of the samples to 2.2 mL Sepharose 6 Fast Flow size-exclusion column, applying the assembly buffer, and collecting 24×150 […]. Protein concentration in each fraction was determined by measuring the radioactivity using liquid scintillation counting. […]
A general note: Size exclusion chromatography separates by hydrodynamic size, large species first.

Here are results for 2 molecules from patent US11261216B2, “Engineered hepatitis B core polypeptide” (priority 2018, dated 2022).

As for “wild-type: Wild-type truncated Hepatitis B core protein HBc149, SEQ ID NO: 1”, the “NaCl concentration (ionic strength) required for VLP assembly” value turned out to be 0.5 M.

B1: HP spike transplant: HepBc with HP series of amino acid changes in the spike region; HBc(HP) is SEQ ID NO: 3 (protein)
chain: MDIDPYKEFGATVELLSFLPSDFFPSVRCLLDTAAALYRDALESPEHCSPHHTALRQAVSCWREVTDFGDWVGNNMQDQAARDLVVNYVNANIGLKIRQLLWFHISCLTFGRETVLEYLVSFGVWICTPPAYRPPNAPILSTLPETTVV
With B1, the “NaCl concentration (ionic strength) required for VLP assembly” value amounted to 1.5 M.
